The record followed here is patent US20230365703A1.

pEC50, pKd: −log10 of the molar value.

As usually defined, the pEC50 is the negative decadic logarithm of the EC50, by convention in mol/L. Read a low pEC50 as a high EC50. A word on the EC50 (read off the curve): it is the concentration needed to bring the measured effect to its halfway point. Read a high EC50 (read off the curve) as a need for much substance. Usually pKd stands for the Kd on a negative log10 scale, so that one unit is a factor of ten. A lower pKd goes with a large Kd.

Experiment [1] deals with GPC3 on liver cancer cells (HepG2, HuH-7) (UniProt P51654). The experiment can be described thus: flow cytometry on HepG2 cells, Alexa Fluor 488 anti-human IgG; fit value of the flat control curve; unit inferred, unit taken from the axis Con.(nM). For orientation: In flow cytometry, cells or beads pass a laser one at a time.
For experiment [2], the target named is IL12 receptors on H_IL12 Reporter 293 cells (UniProt P42701). The experiment in a line: cell-based or functional assay.
Sequence of IL12 receptors on H_IL12 Reporter 293 cells (Q99665 24-862 limits assumed, chain 2 of 2, other chains not shown): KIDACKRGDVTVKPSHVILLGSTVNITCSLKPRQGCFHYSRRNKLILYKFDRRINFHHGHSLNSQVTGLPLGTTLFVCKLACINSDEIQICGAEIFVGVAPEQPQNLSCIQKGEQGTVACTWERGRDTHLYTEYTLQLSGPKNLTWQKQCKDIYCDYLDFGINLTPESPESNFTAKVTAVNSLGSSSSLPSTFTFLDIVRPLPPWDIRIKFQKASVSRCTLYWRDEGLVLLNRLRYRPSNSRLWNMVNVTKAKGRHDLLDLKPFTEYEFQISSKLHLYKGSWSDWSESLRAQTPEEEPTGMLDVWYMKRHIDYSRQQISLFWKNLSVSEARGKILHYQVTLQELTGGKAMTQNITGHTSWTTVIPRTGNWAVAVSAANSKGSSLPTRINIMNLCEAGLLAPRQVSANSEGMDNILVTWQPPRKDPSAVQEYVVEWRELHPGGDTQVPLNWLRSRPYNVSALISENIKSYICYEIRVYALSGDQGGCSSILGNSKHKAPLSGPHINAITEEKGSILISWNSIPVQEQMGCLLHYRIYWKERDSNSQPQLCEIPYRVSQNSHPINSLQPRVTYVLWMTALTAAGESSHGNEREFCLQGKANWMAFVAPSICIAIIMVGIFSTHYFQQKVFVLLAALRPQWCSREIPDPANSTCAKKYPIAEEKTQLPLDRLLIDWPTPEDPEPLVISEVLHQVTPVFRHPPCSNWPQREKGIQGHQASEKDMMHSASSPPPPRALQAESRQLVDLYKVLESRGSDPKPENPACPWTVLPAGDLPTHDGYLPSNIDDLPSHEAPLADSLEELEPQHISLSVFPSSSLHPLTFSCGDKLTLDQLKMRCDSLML
The target in experiment [3] is CD47 on CD47-transfected CHO-K1 cells (Homo sapiens (Human)) (UniProt Q08722). The experiment in a line: flow cytometry on CD47-transfected CHO-K1 cells (CD38-/CD47+), anti-human IgG-FITC detection.
The target of experiment [4] is human CD47-Fc chimeric protein (human) (UniProt Q08722). The experiment can be described thus: SPR (Biacore T200), human CD47-Fc captured on anti-human IgG (Fc) CM5 chip, analyte 50 nM, bivalent analyte model.

In experiment [1], “Human IgG1 homotype control (Isotype) (antibody)” had a pEC50 of 8.47. Consider “IL12A and IL12B complex (from UniProt P29459 23-219; P29460 24-328) (ligand)”, for which the EC50 on H IL12 Reporter 293 cells (One-Glo signal; called binding affinity by the filing) in experiment [2] amounted to 0.06 nM. For TTI-621 (Fc fusion), the EC50 (read off the curve) in experiment [3] was found to be 0.8 nM. The substance also showed a pKd in experiment [4] of 7.43.
